Laboratory results as given in patent publication EP2698431B1 (Chugai Seiyaku Kabushiki Kaisha, dated 2020).
Numbering of substitutions follows the chain as printed. Where two headings read alike, the source gives them in different places. Blank lines part the entries; values can stand above or below the binder they belong to.

How the values were obtained:
[1] = target: T1, soluble human IL-6 receptor (human, UniProt P08887 20-357); experiment: SPR 37C, 3 µM Ca, estimated from Req
T1 construct: also called hsIL-6R
T1 sequence: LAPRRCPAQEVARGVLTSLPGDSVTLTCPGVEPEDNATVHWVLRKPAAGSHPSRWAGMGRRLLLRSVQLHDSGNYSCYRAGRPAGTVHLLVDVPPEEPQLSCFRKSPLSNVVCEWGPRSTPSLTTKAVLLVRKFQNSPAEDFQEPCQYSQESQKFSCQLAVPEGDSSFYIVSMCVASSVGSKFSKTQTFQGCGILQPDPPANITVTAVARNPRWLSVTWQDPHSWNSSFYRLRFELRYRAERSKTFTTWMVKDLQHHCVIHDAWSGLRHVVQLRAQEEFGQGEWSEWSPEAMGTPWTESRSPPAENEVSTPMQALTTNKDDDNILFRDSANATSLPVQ

[2] = target: T1, soluble human IL-6 receptor; experiment: SPR 37C, 3 µM CaCl2
[3] = target: T2, mouse FcγRIV (mouse, UniProt A0A0B4J1G0 21-203); experiment: SPR pH7.4
T2 construct: bought; also called mFcgRIV
T2 sequence: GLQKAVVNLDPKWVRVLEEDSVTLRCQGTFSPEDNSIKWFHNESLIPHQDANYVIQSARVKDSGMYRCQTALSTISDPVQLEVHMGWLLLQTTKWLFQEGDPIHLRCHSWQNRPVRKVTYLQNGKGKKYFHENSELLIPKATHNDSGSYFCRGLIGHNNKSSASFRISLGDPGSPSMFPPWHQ

[4] = target: T3, mouse FcγRIIb (mouse, UniProt P08101 40-217, limits assumed); experiment: SPR pH7.4
T3 construct: bought; also called mFcgRIIb; mFcgRII
T3 sequence (looked up): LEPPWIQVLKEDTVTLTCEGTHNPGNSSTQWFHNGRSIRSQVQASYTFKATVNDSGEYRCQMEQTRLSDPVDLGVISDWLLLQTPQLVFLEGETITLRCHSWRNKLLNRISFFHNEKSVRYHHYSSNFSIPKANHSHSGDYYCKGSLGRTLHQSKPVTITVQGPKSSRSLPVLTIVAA

[5] = target: T4, mouse FcγRIII (mouse, UniProt P08508 31-215); experiment: SPR pH7.4
T4 construct: bought; also called mFcgRIII
T4 sequence (looked up): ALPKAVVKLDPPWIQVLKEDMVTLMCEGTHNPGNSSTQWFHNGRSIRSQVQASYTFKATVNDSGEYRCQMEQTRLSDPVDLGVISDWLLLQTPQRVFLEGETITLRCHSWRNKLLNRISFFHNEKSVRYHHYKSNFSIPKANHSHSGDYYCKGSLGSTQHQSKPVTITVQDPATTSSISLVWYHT

[6] = target: T5, mouse FcγRI (mouse, UniProt P26151 25-297); experiment: SPR pH7.4
T5 construct: bought; also called mFcgRI
T5 sequence (looked up): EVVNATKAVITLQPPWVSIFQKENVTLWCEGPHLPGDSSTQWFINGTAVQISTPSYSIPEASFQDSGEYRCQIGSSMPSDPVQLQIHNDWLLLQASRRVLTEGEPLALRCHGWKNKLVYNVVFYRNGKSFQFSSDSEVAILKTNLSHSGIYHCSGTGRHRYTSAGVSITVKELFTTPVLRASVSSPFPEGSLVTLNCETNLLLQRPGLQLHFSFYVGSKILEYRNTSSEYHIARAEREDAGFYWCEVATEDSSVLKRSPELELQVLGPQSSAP

[7] = target: T6, human FcRn (soluble, complexed with β2-microglobulin) (human, UniProt P61769 21-119); experiment: SPR pH7.0
[8] = target: T6, human FcRn (soluble, complexed with …); experiment: SPR pH7.0; remark: listed apart in the source
[9] = target: T6, human FcRn (soluble, complexed with …); experiment: SPR pH7.0; remark: listed apart in the source
[10] = target: T6, human FcRn (soluble, complexed with …); experiment: SPR pH7.0; remark: listed apart in the source
[11] = target: T2, mouse FcγRIV; experiment: SPR pH7.4; remark: listed apart in the source
[12] = target: T3, mouse FcγRIIb; experiment: SPR pH7.4; remark: listed apart in the source
[13] = target: T4, mouse FcγRIII; experiment: SPR pH7.4; remark: listed apart in the source
[14] = target: T5, mouse FcγRI; experiment: SPR pH7.4; remark: listed apart in the source
[15] = target: T6, human FcRn (soluble, complexed with …); experiment: SPR pH7.0; remark: listed apart in the source
[16] = target: T6, human FcRn (soluble, complexed with …); experiment: SPR pH7.0; remark: listed apart in the source
[17] = target: T2, mouse FcγRIV; experiment: SPR pH7.4; set-up: unit not given here
[18] = target: T3, mouse FcγRIIb; experiment: SPR pH7.4; set-up: unit not given here
[19] = target: T4, mouse FcγRIII; experiment: SPR pH7.4; set-up: unit not given here
[20] = target: T5, mouse FcγRI; experiment: SPR pH7.4; set-up: unit not given here
[21] = target: T6, human FcRn (soluble, complexed with …); experiment: SPR pH7.0; remark: listed apart in the source
[22] = target: T6, human FcRn (soluble, complexed with …); experiment: SPR pH7.0; remark: listed apart in the source
[23] = target: T6, human FcRn (soluble, complexed with …); experiment: SPR pH7.0; remark: listed apart in the source
[24] = target: T6, human FcRn (soluble, complexed with …); experiment: SPR pH7.0; remark: listed apart in the source
[25] = target: T6, human FcRn (soluble, complexed with …); experiment: SPR pH7.0; remark: listed apart in the source
[26] = target: T6, human FcRn (soluble, complexed with …); experiment: SPR pH7.0; remark: listed apart in the source

Kd [1]: ~34000 nM
Kd [2]: ≥ 34000 nM
B1: FH4-IgG1 (antibody, V domains shown)
VH: QVQLVQSGAEVKKPGSSVKVSCKASGGTFSSYAISWVRQAPGQGLEWMGGIIPIFGTANYAQKFQGRVTITADESTSTAYMELSSLRSEDTAVYYCARERDYYDSSGYYDAFDIWGQGTMVTVSS
VL: ETTVTQSPSFLSASVGDRVTITCITTTDIDDDMNWFQQEPGKAPKLLISEGNILRPGVPSRFSSSGYGTDFTLTISKLQPEDFATYYCLQSDNLPFTFGQGTKLEIKR

binding amount [3]: 242 RU
binding amount [4]: 112 RU
binding amount [5]: 371 RU
binding amount [6]: 315 RU
Kd [7]: 30 nM
Kd [8]: 30 nM
Kd [9]: 30 nM
B2: VH3/L(WT)-IgG1-F21 (antibody)
chain 1: QVQLQESGPGLVKPSETLSLTCAVSGHSISHDHAWSWVRQPPGEGLEWIGFISYSGITNYNPSLQGRVTISRDNSKNTLYLQMNSLRAEDTAVYYCARSLARTTAMDYWGEGTLVTVSSASTKGPSVFPLAPSSKSTSGGTAALGCLVKDYFPEPVTVSWNSGALTSGVHTFPAVLQSSGLYSLSSVVTVPSSSLGTQTYICNVNHKPSNTKVDKKVEPKSCDKTHTCPPCPAPELLGGPSVFLFPPKPKDTLYISRTPEVTCVVVDVSHEDPEVKFNWYVDGVEVHNAKTKPREEQYNSTYRVVSVLTPLHQDWLNGKEYKCKVSNKALPAPIEKTISKAKGQPREPQVYTLPPSRDELTKNQVSLTCLVKGFYPSDIAVEWESNGQPENNYKTTPPVLDSDGSFFLYSKLTVDKSRWQQGNVFSCSVMHEALHYHYTQKSLSLSP
chain 2: not shown

Kd [10]: 150 nM
binding amount [11]: -7.3 RU
binding amount [12]: -6.3 RU
binding amount [13]: -24.9 RU
binding amount [14]: -2 RU
Kd [15]: 150 nM
Kd [16]: 153 nM
B3: VH3/L(WT)-IgG1-F939 (antibody)
chain 1: B2 chain 1 with L237R, S241K, P310V, Y438V
chain 2: not shown

binding amount [17]: 279
binding amount [18]: 129
binding amount [19]: 664
binding amount [20]: 329
Kd [10]: 11 nM
binding amount [11]: 242 RU
binding amount [12]: 117 RU
binding amount [13]: 382 RU
binding amount [14]: 299 RU
Kd [21]: 11 nM
Kd [15]: 11 nM
Kd [16]: 11 nM
B4: VH3/L(WT)-IgG1-F947 (antibody)
chain 1: B2 chain 1 with T252V, T309Q, Q313A, Y438V
chain 2: not shown

binding amount [3]: 108 RU
binding amount [4]: -1.8 RU
binding amount [5]: 46.6 RU
Kd [22]: 36 nM
Kd [7]: 36 nM
Kd [9]: 36 nM
B5: VH3/L(WT)-IgG1-F140 (antibody)
chain 1: B2 chain 1 with S241K
chain 2: not shown

binding amount [3]: 138 RU
binding amount [4]: -2.5 RU
Kd [7]: 94 nM
Kd [23]: 94 nM
B6: VH3/L(WT)-IgG1-F424 (antibody)
chain 1: B2 chain 1 with S241K, Y254M, P259A, M430L
chain 2: not shown

Kd [10]: 110 nM
binding amount [11]: 230 RU
binding amount [12]: 69.3 RU
binding amount [13]: 284 RU
binding amount [14]: 268 RU
Kd [16]: 107 nM
Kd [24]: 110 nM
B7: VH3/L(WT)-IgG1-F890 (antibody)
chain 1: B2 chain 1 with P310V, Y438V
chain 2: not shown

Kd [10]: 12 nM
binding amount [11]: 7.2 RU
binding amount [12]: -1.5 RU
binding amount [13]: -12.9 RU
binding amount [14]: 0.6 RU
Kd [25]: 12 nM
Kd [16]: 12 nM
B8: VH3/L(WT)-IgG1-F1009 (antibody)
chain 1: B2 chain 1 with L237R, S241K, T252V, T309Q, Q313A, Y438V
chain 2: not shown

binding amount [3]: 243 RU
binding amount [4]: 129 RU
binding amount [5]: 276 RU
binding amount [6]: 315 RU
Kd [22]: 150 nM
Kd [7]: 150 nM
B9: VH3/L(WT)-IgG1-F157 (antibody)
chain 1: B2 chain 1 with Y254M, P259A, M430L
chain 2: not shown

Kd [10]: 310 nM
binding amount [11]: -3.8 RU
binding amount [12]: -4.5 RU
binding amount [13]: -20.3 RU
binding amount [14]: 0.6 RU
Kd [26]: 310 nM
B10: VH3/L(WT)-IgG1-F821 (antibody)
chain 1: B2 chain 1 with L237R, S241K, P310V
chain 2: not shown

Kd [1]: ~31000 nM
Kd [2]: ≥ 31000 nM
B11: 6RL#9-IgG1 (antibody, V domains shown)
VH: QVQLVQSGAEVKKPGASVKVSCKASGYTFTSYYMHWVRQAPGQGLEWMGIINPSGGSTSYAQKFQGRVTMTRDTSTSTVYMELSSLRSEDTAVYYCARDDPGGGEYYFDYWGQGTLVTVSS
VL: QSVLTQPPSVSGAPGQRVTISCTGSRSNMGAGYDVHWYQLLPGAAPKLLISHNTHRPSGVPDRFSGSKSGASASLAITGLQAEDEADYYCQSHDSSLSAVVFGGGTKLTVLS
